Experiment: soluble fraction after stress (log2 fold change); higher = more stays soluble; pooled small domains, quantitative proteomics
Conditions: stress: 50 degC
Summary of the method: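 Pooled custom libraries of small protein domains were each held under stress at 50°C. The read-out, high-throughput quantitative proteomics, tracked how much of each protein stayed soluble. This is reported as a base-two log fold change used to indicate aggregation propensity. Higher values mean more protein remains in solution.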

Sequence	soluble fraction (log2)
HMASALDVALNDFAEMRKKMRKPLTDRALALTLSELEKLAPGNDEKKIAILNQSIQRGWQGVFPLK	-0.162
HMSKPILSFVDPEKDPSHYVKRYITEETYKDWFSEHFPDYTLYEGIGITQEEYRNIVNELTKP	-0.493
HMIYNSGTTDSRGEAIVGGYLVTVTDTDTKDPVANAAVTLHKDNSISIRLPNSRLLDYADQTTVTVQLV	-0.0327
HMLDSPHDDLNRKIVQMLQNDGRLPYKDIAEVLSVSEGTVRNRVQRMRDAGMLNIVALIDPMAI	0.158
HMLTANPEEVVNRLTSAGEVGVRPLLDVDDPINAISTLLAIREDVYKQFAQFDTVGKSPSEIAHEIDDFL	0.00575
HMDSLSLTELRIDSASPWIGNRISDFSPYAGELVIMIIRGEETIVPNGDTIILDKDLLVIYSS	-2.18
HMKFTELEQLMLKREINTLADIARVLKTTPQAVSNWKARDQIPYHIVAKINASINKDSNDSSLSI	0.00789
HMLNVNDVIARNVRAARERKKLTLDGAAELTGVSRSMLAQIEKGEVNPTISVVWKIANGFKVSFTSLVEPQ	-0.498
HMNYTSEDIKLASELFFHLLNNRILPANDVLASQYYDNNEIREILENMAEEGGLRIFGTRENLHLVSNGE	-0.432
HMEVKEVDYSAFMTMTEENSISKVEIEENQILFKKKGDDQTTYKTARMDDPALITRLHDQGVDFTGQ	0.0677
HMQISDTTELSTLITKVLSEQSDALVDFKNPKKQKQVIGYLTGQVLRASQGKANPGLVRSLLEEQLSALDS	0.124
HMDAQNLQDQLFGFLKANPTQAYPAQTLADGLRLDDANAFTKVVQALAALERGGKVKVNEEGAFQYDAEK	0.0478
HMGKEIEAPDFKNMTLKEAKIAAKEYKIRIKKGDEVVSEEVEKGRIVSQDPDAGTTIKTGSTVTVNISKGL	0.126
HMVDGTPALTDLKKVSKPGRRHYTGSQEIPRVLNGLGISIVSTSKGIMTGAQARRQKVGGELLAFV	0.16
HMTRDAQLAALERLMDDPSPVVRKAVLKGVQAAGTEGLLWLQQLSKNQTLGPYALALLTELR	-0.412
HMFHDALVSFAERRVIFMKELVNRLNEARKAYYEGESIMSDKEYDNLYDKLVKMELTTGVVLPNSPTEEVG	-1.37
HMGAVPKNYFPAVEKGLQDSVQKGLLAGYPVVGVKAILYDGSYHPVDSSEMAFKTATIQAFKKGFMEA	0.2
HMEPEYIGELEKRIKKLKTHTYSSIDRLMKSISKKYKITTQVLHDDFKNKHNEIPDEWVKQF	-0.0578
HMSTDNINYKNILIASLLIHAAKIDENYTENEKNIIKKALIELDEIDSKKADEIMILAEKKE	-0.221
HMKKRDAEIMLQREFKLTEAIAMVRDRDIQELLPIALYFKVNINQPTAEIRYNLLNIAKSKTQEFIEAFD	-1.96
HMQVTEVDYGTFMKMVEEKNVGEVEVGNSMIVFTDKDGKAIYKTGAMNDPNLTERLYNAGASFTKE	0.0396
HMNKEVDLPNFVGMTKENAQAQADKIKIKLEFEEEYSSDVEEGKIISQNPEYKENYKIKEKSTVSLKI	0.118
HMSSEASALRGWLQTSQYQGSVTLFANALNVPLKTVEDWVYGRSKPSLQHWSQLYEATGLPEYQQ	-0.18
HMTMNYYDILSIKRDATLEEIQKAYKEKSFQFHPDFNKGISDDSMFRIIKEAYETLSDTEKRNQYDASLNK	0.232
HMHHDQQQITAELARIARNGLPGLTADNAIISRLDALNLLINIHDDRGADATPLRGLLPAIADELLRLT	-0.273

Sequence	soluble fraction (log2)
HMHPDHRTATVPDAAAGRRFDAVLAELFPQFSRSKLTTWIKSGEVLLNGEVPRPRDAVVGGETVSLNVVL	-0.275
HMHSEEAALLHRYIDSLEEPQHTVVVMRDIGGYSFEEIASVVQLKEAHIWMILSRARRKLRELYIKTMDHH	0.138
HMEEQKYEYHLGDVVYLGVDKYEILGITNNIVTLYDPEFPLLNKQLDFDEFEKRVKDNYANEHLKVT	-0.429
HMSREQARRFYFDTWAKHRASQPLTDLEKIALTVMLLHPEYHSLLDKPDHYVDKDYSPEAGQTNPFLHM	-1.2
HMDELIKQVANYIINNRATINETAGAFGKSVSSIKKYINDADKLQRIDFELYQKVKEVQKIVELNGQI	0.144
HMEAELNSLVKTYENMKPKAAAQVFEELDMDVLLDVVERMKEKKLAPILAQVTPTRAKEITYELTQRR	0.0638
HMDSAMMDLVMRVQLALFTKGYDVGIIDGKIGPKTRAQIKRYQSDNRLSSTGTLTTSLLTSLGIQ	-1.88
HMESYTEEMLEKMSVSKLRTIARELQVDNMTREQIRFGKKTELIQNILEFTGREIENMQLYDK	-0.134
HMTPNATWQDDAQNLLRDLIQHQPVLVQISAAKRLRDQAEQISRITGGETVTREHVEAAGHALGMGVT	0.0847
HMKQTMIVVMEKDAPQSQIDDMVKRIEGLGLKAHTIVGTQRTVVAAIGEKREDTRESLAGSPGVAEVVPIL	0.181
HMAPPPPEGYIHRWIRESVMGFDDKKNLSARIREGFELVRAEEYPDYEAPTVMDGKHAGVIANGGLLLARF	-0.148
HMSNPADDVVDLLRQLRLPHMRAAAPELLATAKAQRWDPAEAIRALLTEELAGRQASSINARRK	-0.406
HMGRSTQVPGVEKMTYSQAVQLLHDHGFRVDIRDSLYRDDIKPGHVIEQFPKAKSIVKPGRKIFLYINAV	-1.32
HMPTMVAQINEIVQAKLPGSGLKDYTIRLVESQRDGVVVWVNGTRYLGVDEVAEPQVQALLKEAVAEWERS	-0.132
HMPTLSKVGSQGEEVRQIQTKLKNWGYLNDRVDGIYGPKTRDAVIWFQKKNGLVADGIAGPATLKAMGIFT	0.0925
HMPNYIDAISALLTLKGVGDRKHASTMANILNLQYNSAKQKLDGKRGITLDEVKKVFQYFNEPF	-1.1
HMKTIQVGSTVRVNQGAKTYSGGGLASFVYKRNHKVSQLQGDRAVITYEGTVVAAVHVSDLSLIH	-0.062
HMRDQARQFFIDTWAKFQRHDALTPLEEKTAAIIALHPEYHRVLQNPESFITTDWRPESGDINPFMHL	-1.34
HMISAVDLMAARRKIEAGITNLQPGQAFTLPNKVGWVKRMTGGSYFIQGNGGYTASVRTISEAIQAAAMLL	-0.394
HMNMENIADKIGKIYESLPEDLKLMIKYRDIDDLTYDEIAVKADLPVGTVRSRLHRAREQLLKELEKN	-0.143
HMSMFSEILRTLRKAKGLTQRELAGHLGVTQQMVAKWEKGQSTPGPDQLTRMAELLEVSTDTLLGR	-0.162
HMKTLELIAAIRKRIAGGYAGADGRLPNIGEIAKDFSVSPMTAQKAVRALVEAGVLTSTRRKGVFLKQPAS	-1.01
HMVNFKLIGNKIAEARKKVNISQAQLAQRLFISSQAVGKWERGESMPDIITFNRLAEILGVDLNYFSE	0.0107
HMIKVAANESNRSDVLEIVRLFRVRVVDVNPESLTIEATGAEGKIDALLGLLEHYGVIELVRSGAVAVT	-0.435
HMNKRKQRINDLMDLIREQPALSIKNLAEMLNVSEMTIRRDMAYLKSNNLLNRAHGMNFLNS	0.0812

Sequence	soluble fraction (log2)
HMRGFTDFEHIEKEYLATIEKLNWPDGVTLPDKLEGEDTGTSFQVGYGDTRASNLWEYSWMK	-0.0186
HMKKERITWDERLERFAKYITENESLPYPSSKEHAWFEENKALYDAGELESVRAQSFSFLLKILRRMNLI	-0.278
HMKLTNIQYETLKVVVESRAKIDEEEGITIKLEDIKKYIDQAISFTGLVGDDEDYKKLFADMEYRFKIQ	-2.38
HMGDWEKALAQFAAHRLANGSTAFLDEMYPIFERILLQAALNKTGGRKIEAAELLGWGRNTLTRKLKELGF	-2.2
HMGLVVIGTEAGYPAEKAGILAGDRIRKLNGAAVPDYDTFLTALAARKGEPSAIELERDGKTLEVTVSPL	0.0119
HMAPGIGDSKYFSHIYEMKHIDTIIDNDKGDRLIEHFEIQDTPFIFTKHWTSAFGFSKRQQEIITDYLSYF	0.0839
HMASVVEQVQVSNDISLFRQQNSPYWQARFKVAGKWYTRTTKRTEQTQAAFRAAELRSEVQTKISQGIPLR	-0.866
HMIMNDIQAKVLEIAETKDLGSITYYRLSKMLGVDHPYRVKYAIDKLIEKGLLTAKSDGSITKAI	-0.601
HMEEGKVKRMAMDMVDAFYDKVSAMVDDNNDLGRSVVDAWDDEEENPPEYMLDDETRAILVNAGKIEPE	0.0748
HMFEDYNELDEYLETRFIPTYVLLKQRKNANGEIDHFPSIRLQHIMALKLSEAELEHVMNYLKEKNIRVG	-0.325
HMKAPPLTDREKEILRWVAAGLQNKEIAHKLGISLATVRNHIHNILEKLDVHSKLEAVSLAFRQGWVS	-0.0741
HMTYTMVAYGSQGDAVRQLQSELNRHGYQLDEDGVFGKKTRAAVRDYQKKNSLRLDGIAGDETWGSLLA	0.324
HMDAVDKDGNHMTFKKWSEQLQEAFHALELYDTTRAKQILSELVKFQVDSDITKSLKAIITNIDDMMA	-0.338
HMVPHTTSMVAEVQERLFNLNYDPGPINGRMDQATITAITRFQRNFSLPQTGQIDEGFLNTLRDARL	-0.981
HMGFLTKTQRLEILLHLKDEPYYNVEKLKELIKNRYGIVYQSSQSYYDLLKEAGLSWHQTQA	-0.64
HMSEQTLEDVRRLIEHLPESQKEVVKMRYYQDLSFKEIADLKGISINTALGRMHYAINNMRKMAKEYGL	-1.54
HMTASKSTVSTPEKVVYHIVFPKETKYSIAKKYGITIEELEKRNPEIIPSLSVGQKLVIKGTAPK	-0.00327
HMPGRKTTFEERLSIIEDLIKHDVNYSWAVDKYHVSYQQVYGWYQKYRKSGNDPQSLRDRRGK	-2.7
HMEANPLTDREKEVLELVADGKNTKEIAQELSIKSGTVRNYISMILEKLEVKNRIEAITRSKEKGWF	0.144
HMSVDDEQLLKIIDDIFQQNPQAVTDAKTDSNAIHFLIGQVMKETKGHADHAISKEIIEKKLS	0.00481
HMRYLHTMIRVSDLEESLNFFKLLDIHEVSRKENEQARFTLVFLSATGDEKLVENAKSPLIELTFN	-0.0584
HMPLEQAELRLDLKQAILQMDRQTQELLLLRYVDGLSPGEAGKVLELSRFAVYRREKEALRKLRDYFSH	-1.79
HMIIIMKKSATNSEVRKVIERAEKEGLTVQVNQLEKQQVLGLVGDTRLIQDVAFLRYEGVENVERI	-0.776
HMYPEETVNKILDVSMQLFLEKGYEHTSIQDIVNHLGGLSKGAIYHHFKSKEDILDGVMNKLYQNN	-0.816
HMTELNNTQRAAVLLLALDEDSAAEVFKHLSAREVQEVSQEMAKLGNISHDQMRQVLDDFYDESEQF	-0.0259

— the domain aggregation screens of Martell et al. (2025)
